Results on one molecule are retold here after patent US9364516B2, “Treatment of fibrosis-related disorders using fibronectin binding proteins and polypeptides” (priority 2010, dated 2016).

In experiment [1] the test system is Rat aortic SMCs. The experiment is described as follows: Fibronectin and collagen I deposition in cultured SMCs (immunostaining). Type of experiment: cell-based. Particulars: 500 nM peptide, 3 days, serum containing media. As to the method: FIGS. 1A-1I depict the effect of pUR4 on fibronectin and collagen I deposition in smooth muscle cells (SMCs). Rat aortic SMCs were grown in serum containing media in the absence (FIGS. 1A-1C) or presence of 500 nM pUR4 (FIGS. 1D-1F) or control III-11C (FIGS. 1G-1I) peptides for 3 days. Cell were fixed, and then incubated with a polyclonal antibody to fibronectin (FIGS. 1A, 1D, and 1G) or collagen I (FIGS. 1B, 1E, and 1H). Bar, 20 μm.
Rat aortic smooth muscle cells (RASM) were obtained from Cell Applications (San Diego, Calif.) and maintained in serum containing media (Cell Applications). SMC were used at passages 4-6.
Previous data has shown that fibronectin regulates the deposition of other proteins into the ECM, including type I collagen (Sottile et al., “Fibronectin Polymerization Regulates the Composition and Stability of Extracellular Matrix Fibrils and Cell-Matrix Adhesions,” Mol. Biol. Cell. 13:3546-3559 (2002), which is hereby incorporated by reference in its entirety). […] However, there was a trend toward decreased fibronectin and collagen I mRNA in the carotid artery of animals treated with pUR4 in comparison with control peptide-treated animals (Table 3).

Experiment [2] has as its system laminin. As to the kind of experiment: ELISA binding of pUR4 to ECM proteins: laminin. Particulars: plates coated 10 μg/mL, FIG. 7. The protocol: FIG. 7 is a graph depicting the binding of pUR4 to ECM Proteins. 96-well plates were coated with 10 μg/mL type I collagen (COL), denatured type I collagen (dCOL), fibronectin (FN), laminin (LN), vitronectin (VN), or fibrinogen (FG) at 4° C. overnight. pUR4 was added to the wells and serially diluted. Bound pUR4 was detected as described herein. Measurements were done at 405 nm on a Wallac 1420 multilabel counter. Data represents the average of duplicate determinations, and the error bars the range.
96-well tissue culture plates were coated with 10 μg/mL type I collagen, fibronectin, laminin, fibrinogen, or vitronectin overnight at 4° C. Denatured collagens were generated as described (George et al., “Fibronectins are Essential for Heart and Blood Vessel Morphogenesis but are Dispensable for Initial Specification of Precursor Cells,” Blood 90:3073-3081 (1997), which is hereby incorporated by reference in its entirety). Plates were blocked with 1% bovine serum albumin (BSA) in Tris buffered saline (TBS) for 1 hour, then washed with TBS. pUR4 was serially diluted into coated wells, then incubated at room temperature for 90 min. Wells were washed with TBS containing 0.1% Tween 20. […] After washing, peroxidase activity was quantified by using 2,2′-azino-bis-(3-ethylbenthiazoline-[…]). […]

Experiment [3] deals with Mouse carotid arteries. The experiment is described as follows: qRT-PCR of fibronectin and collagen I in carotid arteries after ligation. Type of experiment: in vivo. Particulars: III-11C set equal to 1, mean ± s.e.m., 3 arteries. As to the method: mRNA was isolated from RASMs 24 hours after incubation with 500 nM pUR4 or III-11C control peptides using RNAzol as per the manufacturer's instructions (Invitrogen). cDNA was prepared using a Superscript First Strand cDNA kit as per the manufacturer's instructions (Invitrogen). Mouse carotid arteries were harvested and frozen in liquid nitrogen. RNA was isolated using Trizol and purified using a QIAgen RNeasy Micro Kit. RNA integrity was examined with an Agilent 2100 Bioanalyser using RNA6000 NanoAssay (Agilent Technology). Whole transcriptome amplification was performed using Qiagen's QuantiTect Whole Transcriptome Amplification Kit. Quantitative RT-PCR analyses were performed using ABI Prism 7900HT sequence detection system (Applied Biosystems). The qRT-PCR primers for 3 mouse genes were obtained from ABI: GADPH (4352932E), fibronectin (Mm01256744_m1), and collagen Ia1 (Mm00801666_g1). TaqMan probe chemistry was used according to the manufacturer's instructions. qRT-PCR reactions were run in triplicate for each sample. The data was normalized to the levels of GAPDH in each sample, and the results were averaged.
Blood flow in the left carotid artery of 10-week-old FVB/NJ (FVB) mice was reduced by ligating the external and internal carotid arterial branches as described (Korshunov et al., “Flow-Induced Vascular Remodeling in the Mouse: A Model for Carotid Intima-Media Thickening,” Arterioscler. Thromb. Vasc. Biol. 23:2185-2191 (2003), which is hereby incorporated by reference in its entirety). Mice were anesthetized with an intraperitoneal injection of ketamine (80 mg/kg) and xylazine (5 mg/kg) as described in the above-cited referenced. The left common carotid artery was dissected free of the surrounding connective tissue and 50 μL of F-127 pluronic gel (BASF) containing 20 μmol/L pUR4 or III-11C was applied around the carotid artery. Animals were separated into 5 groups containing 5 to 10 animals each: (1) sham-operated, in which the branches of the left carotid artery were exposed and dissected out, but not ligated; (2) ligation; (3) ligation with pluronic gel; (4) ligation with pluronic gel containing III-11C; (5) ligation with pluronic gel containing pUR4.

The subject of experiment [4] is C57/Bl6 mice. As to the kind of experiment: Myocardial infarction by permanent coronary ligation. Type of experiment: in vivo, mouse. The protocol:
C57/B16 male mice (12 wks) underwent permanent coronary ligation injury. pUR4 or control peptide (III-11C or del29) was delivered (25 mg/kg/day) in randomized fashion immediately following induction of EKG-verified MI, then once daily via IP injection for 6 days. Serial, investigator-blind echocardiography for 4 weeks was followed by sacrifice; hearts were excised, weighed, and prepared for histological processing. […] FIG. 14B show the % fractional shortening (FS) in control (III-11C, n=8) and pUR4 (n=9) groups.
The therapeutic benefit of pUR4 mediated inhibition of fibronectin polymerization was investigated in a mouse model of myocardial infarction (MI). Male C57/Bl6 mice underwent permanent coronary artery ligation injury, verified at time of surgery by EKG S-T elevation. pUR4 or III-11C were administered via i.p. injection immediately following ligation. Animals subsequently received once daily IP injection for 6 days, and were followed for 4 weeks total. Serial, investigator blind echocardiography assessed cardiac function at baseline, 2 weeks, and 4 weeks.

Experiment [5] has as its system fibronectin binding to the cell surface. The experiment is described as follows: Inhibition of fibronectin binding to the cell surface. Type of experiment: cell-based.
Experiment [6] deals with fibronectin matrix assembly. As to the kind of experiment: Inhibition of fibronectin matrix assembly in cell culture. Type of experiment: cell-based. Particulars: cell culture experiments.
[7] abbreviates: 25 mg/kg/day IP, one week of treatment, up to 4 weeks post-MI.
[8] abbreviates: echocardiography post-MI, p<0.05.

B1: pUR4: 49-mer peptide derived from the bacterial F1 adhesin, His tagged, SEQ ID NO:1; class I fibronectin polymerization inhibitor (peptide)
chain: MRGSHHHHHHGSKDQSPLAGESGETEYITEVYGNQQNPVDIDKKLPNETGFSGNMVETEDTKLN
modifications: His tag; Bacterial adhesin derived peptide pUR4
Take B1: in experiment [1], the “deposition of endogenous collagen I into matrix fibrils” value is on record as “inhibited” and the “deposition of endogenous fibronectin into the ECM” value is reported as “inhibited”. Moreover, the binding to laminin result in experiment [2] was “does not bind”. Moreover, in experiment [3] (4 days post surgery), the “Col Ia1 mRNA, relative level, Day 4” value is 0.60 ± 0.30 and the “Fibronectin mRNA, relative level, Day 4” value turned out to be 0.70 ± 0.23. In experiment [3] (7 days post surgery), the “Col Ia1 mRNA, relative level, Day 7” value turned out to be 0.58 ± 0.36 and the “Fibronectin mRNA, relative level, Day 7” value was determined as 0.41 ± 0.23. In addition, in experiment [4] (setting [7]), the “cardiac function (% fractional shortening)” value is listed as “preserved” and the “cardiac hypertrophy (heart weight to body weight ratio)” value is “reduced”. In experiment [4] (4 weeks post-MI), the “fibronectin deposition within the infarcted area and remote myocardium” value was “reduced”. The “collagen and fibronectin deposition post-MI” value in experiment [4] (FIGS. 15 and 16) is listed as “reduced”. In experiment [4] (setting [8]), this molecule showed an end systolic diameter of 2.91±0.27 and an end-diastolic diameter of 4.12±0.22. Besides, in experiment [4] (histology 4 weeks post-MI), the “cardiac remodeling, infarct size and infarct expansion” value is recorded as “reduction”. The same molecule yielded an EC50 in experiment [5] of 10 nM. Further, the “concentration effective at inhibiting fibronectin matrix assembly” value in experiment [6] was in the range of 50 to 100 nM.

What is called EC50 is the midpoint of the concentration-response curve. The low end stands for higher potency in that assay, the high end for lower potency in that assay.
